Laboratory results as given in PMC4338608.

Experiments:
Experiment in all cases: resonant mirror detection
[1] = target: GST-NHE1cd mutant M3 (K513KK→AAA) (rat (Rattus norvegicus))
[2] = target: recombinant human calmodulin with four extra N-terminal amino acids Gly-Ser-His-Met (human)
[3] = target: GST-NHE1cd mutant M1 (K513KKQETKR→AAAQETAA) (rat (Rattus norvegicus))
[4] = target: GST-NHE1cd mutant M2 (R556FNKKYVKK→…) (rat (Rattus norvegicus))

Substance	Kd [1]	koff [1]	kon [1]	Kd [2]	Kd [3]	kon [3]	Kd [4]	kon [4]
recombinant 4.1R FERM domain (from UniProt P11171 210-488) (domain or fragment)	0.545 µM	0.065 s⁻¹	120000 M⁻¹ s⁻¹	0.1 µM				
exon 5-encoded human 4.1R^80 polypeptide (GST fusion) (domain or fragment)					4.79 µM	250 M⁻¹ s⁻¹	26.1 µM	240 M⁻¹ s⁻¹
